The series can be described thus: protein stability index of a GFP-peptide fusion (GPS, HEK-293T) (PSI 1-6); higher = more stable. Conditions: c terminus: a fixed tail appended.

± gives the standard deviation.
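Note: 24-mer peptide tiles fused after GFP, lentivirally expressed, FACS-sorted into six equal bins by GFP/DsRed ratio, decoded by Illumina sequencing, PSI is the read-weighted mean bin number.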

Regarding IISSDELNVRSEEQVFNAVMAWVK [KLHL20], the protein stability index amounted to 2.28 ± 0.22 (treatment: DMSO) and 2.42 ± 0.32 (treatment: MLN4924 1 uM, 8 h).

Take PGRREGCDICAGKAGCPIVEEPLG [RPS21]: the protein stability index (treatment: DMSO) amounted to 4.09 ± 0.33 and the protein stability index (treatment: MLN4924 1 uM, 8 h) amounted to 4.25 ± 0.072.

For NAAHSLLSTNDKTIKLWKITERDK [PPP2R2C], the protein stability index was found to be 3.68 ± 0.085 (treatment: DMSO) and 3.82 ± 0.27 (treatment: MLN4924 1 uM, 8 h).

On to YQVAALQGDLASLRAELQGHHAEK [TNFSF13B], for which the protein stability index reads like this: (treatment: DMSO) 3.71 ± 0.14; (treatment: MLN4924 1 uM, 8 h) 3.88 ± 0.099.

Take LATQSLTVETCRALGKLLPRETLC [LRRC45]: the protein stability index worked out at 2.44 ± 0.49 (treatment: DMSO) and 2.48 ± 0.45 (treatment: MLN4924 1 uM, 8 h).

Consider IQLIKTNKKHIHSRSTLECAYRTH [SMG5], for which the protein stability index runs as follows: (treatment: DMSO) 2.38 ± 0.096; (treatment: MLN4924 1 uM, 8 h) 2.54 ± 0.1.

With SRSENVLSRLSLMAMPNGFHEDGP [PSD2], the protein stability index by setting is: (treatment: DMSO) 3.73 ± 0.17; (treatment: MLN4924 1 uM, 8 h) 3.87 ± 0.27.

For the sequence VTKLCVQFLNDQISVQNYKQVCKI [KLHL14], the protein stability index by setting is: (treatment: DMSO) 2.76 ± 0.46; (treatment: MLN4924 1 uM, 8 h) 2.42 ± 0.56.

As to LFLGQGIQVSLYCQEWYARRHCPL [SOAT2], the protein stability index is 2.83 ± 0.46 (treatment: DMSO) and 2.57 ± 0.46 (treatment: MLN4924 1 uM, 8 h).

With FNYSVGFKDLNESLNALEDQDLDA [APBB1IP], the protein stability index runs as follows: (treatment: DMSO) 4.13 ± 0.33; (treatment: MLN4924 1 uM, 8 h) 3.98 ± 0.68.

Take PGFDRGQFHKQIAVMRGQILNLTQ [PI4K2A]: the protein stability index was 2.56 ± 0.21 (treatment: DMSO) and 2.56 ± 0.28 (treatment: MLN4924 1 uM, 8 h).

As to MSNQQEKYEAQNIVNSTEESDDAF [IQUB], the protein stability index runs as follows: (treatment: DMSO) 5.65 ± 0.18; (treatment: MLN4924 1 uM, 8 h) 5.47 ± 0.29.

For the sequence WLISEEEKTQKNQCWKSLFIDTYS [FBXO3], the protein stability index reads like this: (treatment: DMSO) 2.16 ± 0.3; (treatment: MLN4924 1 uM, 8 h) 2.45 ± 0.33.

For the sequence STVKTETISFGSVSPGGVKLEIST [EPB41L3], the protein stability index by setting is: (treatment: DMSO) 3.19 ± 0.58; (treatment: MLN4924 1 uM, 8 h) 3.06 ± 0.42.

NVPRICGVCGDRATGFHFNAMTCE [VDR] registered a protein stability index (treatment: DMSO) of 2.83 ± 0.39 and a protein stability index (treatment: MLN4924 1 uM, 8 h) of 2.73 ± 0.2.

For the sequence ARVTGELTMTFPAGIVRVFSGTPP [FCHO1], the protein stability index is, setting by setting: (treatment: DMSO) 2.51 ± 0.16; (treatment: MLN4924 1 uM, 8 h) 2.43 ± 0.23.

As to VVQGPDGRLELKPLLLRLPRICQR [FANCE], the protein stability index is, setting by setting: (treatment: DMSO) 2.35 ± 0.33; (treatment: MLN4924 1 uM, 8 h) 2.45 ± 0.15.

Regarding TEELIVQTKQVYDAVGMLGIEEVT [NLN], the protein stability index was 4.23 ± 0.17 (treatment: DMSO) and 4.1 ± 0.45 (treatment: MLN4924 1 uM, 8 h).

For ITCSSTMSYSCCLPSLGCRTSCSS [KRT34], the protein stability index came out at 2.19 ± 0.16 (treatment: DMSO) and 2.1 ± 0.32 (treatment: MLN4924 1 uM, 8 h).

On to RNQTQVLRQQQDEAYLASLRADQE [FAF2], for which the protein stability index reads like this: (treatment: DMSO) 5.18 ± 0.32; (treatment: MLN4924 1 uM, 8 h) 5.17 ± 0.16.

RESPSFKLEPMETERSPGPRLQEL [ZNF263]: the protein stability index is 4.42 ± 0.14 (treatment: DMSO) and 4.51 ± 0.2 (treatment: MLN4924 1 uM, 8 h).

With IENNKYGWFWVCPGGGDICMYRHA [ZC3H15], the protein stability index is 2.52 ± 0.32 (treatment: DMSO) and 2.15 ± 0.53 (treatment: MLN4924 1 uM, 8 h).

As for FMHSRNLYILGNFMQLKCFSSQKL [PNLIPRP1], the protein stability index reads like this: (treatment: DMSO) 3.11 ± 1.1; (treatment: MLN4924 1 uM, 8 h) 2.53 ± 0.74.

Sequence LDKMLDPQVWREAATQVFFALGLG [SLC6A17] registered a protein stability index (treatment: DMSO) of 2.52 ± 0.68 and a protein stability index (treatment: MLN4924 1 uM, 8 h) of 2.25 ± 0.28.

On to APATGSGTPGPFTKEGGMLAYYEV [CHIT1], for which the protein stability index was 2.55 ± 0.25 (treatment: DMSO) and 2.63 ± 0.16 (treatment: MLN4924 1 uM, 8 h).

Turning to TSLGLTYDGMLSDVQSMPKTGILI [MAGEA10], the protein stability index (treatment: DMSO) worked out at 1.93 ± 0.39 and the protein stability index (treatment: MLN4924 1 uM, 8 h) is 2.13 ± 0.41.

With STNGEKTKSPCESNNKKNDEMQEV [SPANXN3], the protein stability index is, setting by setting: (treatment: DMSO) 5.53 ± 0.16; (treatment: MLN4924 1 uM, 8 h) 5.41 ± 0.19.

On to PKDIAKLVPKTHLMSESEWRNLGV [CKS1B], for which the protein stability index (treatment: DMSO) came to 2.8 ± 0.32 and the protein stability index (treatment: MLN4924 1 uM, 8 h) is 2.85 ± 0.34.

Take SWRWIMLILFAWGTLLFYIGGHLV [FUT8]: the protein stability index (treatment: DMSO) worked out at 2.42 ± 0.14 and the protein stability index (treatment: MLN4924 1 uM, 8 h) was found to be 2.27 ± 0.47.

For PEQSLKKTKTSEYPIIFVYYLRKG [SPANXN3], the protein stability index is, setting by setting: (treatment: DMSO) 2.75 ± 1.8; (treatment: MLN4924 1 uM, 8 h) 2.59 ± 0.37.

As for DEISDHAKVLTLSDDLERTIEERV [EIF5], the protein stability index reads like this: (treatment: DMSO) 5.16 ± 0.28; (treatment: MLN4924 1 uM, 8 h) 5.44 ± 0.11.

As to LAGLTRPDVRPPLGRGLVGGQEEA [SEPHS2], the protein stability index by setting is: (treatment: DMSO) 4.86 ± 0.094; (treatment: MLN4924 1 uM, 8 h) 4.92 ± 0.083.

For the sequence DQNTVVTRQLSEENANLQEYVEKE [MTUS2], the protein stability index (treatment: DMSO) stood at 5.41 ± 0.25 and the protein stability index (treatment: MLN4924 1 uM, 8 h) was found to be 5.51 ± 0.21.

Regarding SRVLLSAIEGIPGSDYVNANYIDG [PTPRD], the protein stability index amounted to 3.28 ± 0.26 (treatment: DMSO) and 3.73 ± 0.24 (treatment: MLN4924 1 uM, 8 h).

For the sequence EEARRNRLMRDMAQLRLQLEVSQL [SMG5], the protein stability index was 2.25 ± 0.27 (treatment: DMSO) and 2.41 ± 0.29 (treatment: MLN4924 1 uM, 8 h).

Regarding LIVVTQSHLVIHNLFEGMIWFIVP [CDS2], the protein stability index by setting is: (treatment: DMSO) 3.06 ± 0.41; (treatment: MLN4924 1 uM, 8 h) 3.25 ± 0.59.

Values taken from the supplement of paper PMC10567573.
